T1: hTFPI161-Chis (human, UniProt P10646 29-189, limits assumed)
T1 construct: also called human TFPI; not shown: C-terminal His tag ('Chis')
T1 sequence (looked up): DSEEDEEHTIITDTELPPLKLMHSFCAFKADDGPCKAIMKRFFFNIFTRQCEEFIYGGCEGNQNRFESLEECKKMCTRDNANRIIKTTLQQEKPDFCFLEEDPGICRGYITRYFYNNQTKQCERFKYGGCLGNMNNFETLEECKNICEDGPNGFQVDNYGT

B1: TFPI-7G6-1C12 (antibody, V domains shown)
VH: QVQLQQSGAELARPGASVKLSCKASGYSFTSYGISWVKQRTGQGLEWIGEIYPRSTNTYYNEKFMGKATLTADKSSSTAFMELRSLTSEDSAVYFCARESFYGDYGAMDFWGQGASVTVSS
VL: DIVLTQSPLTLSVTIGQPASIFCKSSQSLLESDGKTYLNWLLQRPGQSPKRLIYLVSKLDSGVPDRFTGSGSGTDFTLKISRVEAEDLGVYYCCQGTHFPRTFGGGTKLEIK
notes: Subclone supernatant
B2: TFPI-7G6-2G8 (antibody, V domains shown)
VH: B1 VH
VL: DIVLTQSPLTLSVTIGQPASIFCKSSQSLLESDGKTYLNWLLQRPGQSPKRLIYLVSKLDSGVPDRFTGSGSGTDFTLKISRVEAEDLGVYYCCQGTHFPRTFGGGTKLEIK
notes: Subclone supernatant
B3: TFPI-7G6-5A10 (antibody, V domains shown)
VH: B1 VH
VL: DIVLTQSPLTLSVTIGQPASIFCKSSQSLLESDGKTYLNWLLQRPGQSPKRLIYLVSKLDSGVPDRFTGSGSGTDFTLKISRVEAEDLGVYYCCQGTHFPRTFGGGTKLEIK
notes: Subclone supernatant
B4: TFPI-7G6-5F11 (antibody, V domains shown)
VH: B1 VH
VL: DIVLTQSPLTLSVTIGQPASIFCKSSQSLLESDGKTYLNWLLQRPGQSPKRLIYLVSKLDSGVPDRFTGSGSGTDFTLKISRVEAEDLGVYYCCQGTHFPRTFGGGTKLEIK
notes: Subclone supernatant
B5: Hu7G62-v2 (antibody, human IgG4 S228P, kappa, V domains shown)
VH: QVQLVQSGAEVKKPGASVKVSCKASGYSFTSYGISWVKQAPGQGLEWIGEIYPRSTNTYYNEKFMGKATLTADKSSSTAYMELSSLRSEDTAVYYCARESFYGDYGAMDFWGQGTLVTVSS
VL: DIVMTQSPLSLPVTPGEPASISCKSSQSLLESDGKTYLNWYLQKPGQSPQLLIYLVSKLDSGVPDRFSGSGSGTDFTLKISRVEAEDVGVYYCSQGTHFPRTFGQGTKVEIKR
notes: also called hu7G6-2v2-G4ws; h7G6 antibody

Experiments:
[1] = biological target: T2, hTFPI antigen (human); assay: competitive ELISA, FXa coated (competitor), supernatant diluted 100x
T2 construct: Self-made hTFPI used in the hybridoma screens; It may be the same protein as hTFPI161; also called human TFPI; hTFPD
Protocol: (§1) Coat with 2μg/mL FXA Protease (Neb, batch No. 0941404), after blocking with BSA, the same diluted supernatant of TFPI hybridoma cells and 50 ng/mL hTFPD (batch No. TE20140825, self-made) were added for complete incubation, followed by 1:1500 diluted mouse THETM His Tag Antibody [HRP] mAb (GenScript, batch No. 14C000744), after development by TMB, 1 M H2SO4 stop solution was added to stop developing and the value was read on the microplate reader. Using 650 nm as the reference wavelength, the OD values were read at 450 nm and 650 nm. […] The lower the OD value, the better the inhibition of the anti-TFPI antibody.
(§2) Afterwards, the supernatant of 31 7G6 subcloned cells was performed with the inhibition experiment at different dilution ratios, and the experimental method was the same as 1.2.

[2] = biological target: T2, hTFPI antigen; assay: competitive ELISA, FXa coated (competitor), supernatant diluted 10x
Protocol: as §1, §2

[3] = biological target: T2, hTFPI antigen; assay: ELISA, subclone supernatant, hTFPI, OD450
[4] = biological target: T1, hTFPI161-Chis; assay: competitive ELISA, FXa coated (competitor), 50 ng/mL hTFPI161, anti-His-HRP, four-parameter fit
Protocol: FXa Protease was coated on the plate at 0.2 μg/well overnight at 4° C., after blocking with BSA, the gradient dilution series of hu7G6 antibody protein obtained from the above example was added at 100 uL/well (50 ng/mL hTFPI161 was contained in the dilution), and the reaction was carried out at room temperature for 1 hour. After washing, 1:1500 diluted Mouse THETM His Tag Antibody [HRP] mAb was added, and the reaction was carried out at room temperature for 1 hour. After washing, the development solution was added, and the absorbance was read at the wavelength of 450/650 nm.
The software SotfMax Pro v5.4 was applied for data processing and mapping analysis, using four-parameter fitting, the inhibition curve of h7G6 antibody for FXa-TFPI and EC50 value were obtained. The results were shown in FIG. 3, in which the ordinate was OD450 and the abscissa is the concentration of h7G6 antibody protein (ng/mL); and Hu7G62-v2 antibody protein was effective in inhibiting the interaction between FXA and TFPI.

[5] = biological target: T1, hTFPI161-Chis; assay: ELISA, hTFPI161 coated, anti-human IgG4-HRP, four-parameter fit
Protocol: hTFPI161 protein was coated on the plate at 0.5 μg/well overnight at 4° C. After washing, the gradient dilution series of h7G6 antibody protein obtained in the above example was added, and incubated at 25° C±2° C. for 2 h. After washing, 1:2000 diluted Mouse Anti-Human IgG4 pFc′ antibody [HP 6023] (HRP) was added at 100 μL/well, and incubated at 25° C.±2° C. for 2 h. After washing, the development solution was added, and the absorbance was read at the wavelength of 450/650 nm. The software SotfMax Pro v5.4 was applied for data processing and mapping analysis, using four-parameter fitting, the binding curve of h7G6 antibody to hTFPI161 and EC50 value were obtained, which reflects the affinity of the antibody for hTFPI161.

[6] = biological target: T1, hTFPI161-Chis; assay: BLI, antibody on Protein A biosensor, hTFPI161-Chis 1.875-30 nM, 1:1 model; batch 180820DS
Protocol: (§3) In this experiment, the affinity of h7G6 for human TFPI was detected based on Bio-Layer Interferometry (BLI) technology. K2 instrument of Fortibio was used. Firstly, KN057 was diluted to […] and immobilized on Protein A biosensor (model 18-5010), then hTFPI161-Chis was diluted to 30 nM, 15 nM, 7.5 nM, 3.75 nM and 1.875 nm to combine with h7G6, respectively, and the binding signals with different intensities could be detected. The results were fitted using 1:1 model to calculate the equilibrium constant (KD) of the sample.

[7] = biological target: T1, hTFPI161-Chis; assay: BLI, antibody on Protein A biosensor, hTFPI161-Chis 1.875-30 nM, 1:1 model; batch 180727DS
Protocol: as §3

[8] = biological target: T1, hTFPI161-Chis; assay: BLI, antibody on Protein A biosensor, hTFPI161-Chis 1.875-30 nM, 1:1 model; mean of three batches; average of three batches
Protocol: as §3

Binder | Inhibition % [1] [%] | Inhibition % [2] [%] | OD [3] | IC50 [4] [mg/L] | EC50 [5] [mg/L] | Kd [6] [nM] | Kd [7] [nM] | Kd [8] [nM]
B1 | 57.9 | 95.2 | 1.24 |  |  |  |  | 
B2 | 62.7 | 95.9 | 1.27 |  |  |  |  | 
B3 | 62.1 | 95.9 | 1.25 |  |  |  |  | 
B4 | 55 | 95.1 | 1.35 |  |  |  |  | 
B5 |  |  |  | 0.222 | 0.0419 | 1.47 | 1.32 | 1.37

Source: patent US20220325000A1 (SUZHOU ALPHAMAB, published 2022)
